Usually stoichiometry N stands for a count of units in the complex or per binding partner.

Assay [1] deals with ZIKV E protein on wild-type Zika virus H/PF/2013 in culture supernatant (Zika virus (strain H/PF/2013)). Nature of the assay: ELISA; ZIKV capture ELISA: virus in culture supernatant captured by plate-bound mAb 4G2; serially diluted Fabs added 1 h at 37°C; anti-human Fab alkaline phosphatase; EC50 from titration. On the technique in general: In an ELISA, binding on a coated surface is turned into a signal by an enzyme label.

The target of assay [2] is recombinant ZIKV E protein (ectodomain of Zika virus envelope glycoprotein E) (Zika virus). The assay can be described thus: crystal structure; recombinant ZIKV E and G9E Fab mixed 1:1.2 at room temperature for 30 min, complex purified on Superdex 200-increase; crystals in 100 mM HEPES pH 7.5, 10% (w/v) PEG 8000; 3.4 Å.

On to “G9E-S1/2 Fab (paratope mutant D53A, D54A, D57S, Q58A, K76S)”, for which the fold weaker binding than G9E-S2 in assay [1] was 30 fold. In the case of “G9E-S2 Fab (paratope mutant D57S, Q58A, K76S)”, the fold reduction in binding compared to WT G9E in assay [1] stood at 10 fold.

In the case of “recombinant ZIKV E protein (ectodomain of Zika virus envelope glycoprotein E) (domain or fragment)”, the stoichiometry N in assay [2] was determined as 2.

The values are drawn from publication PMC9870165.
